Test results from patent US20230265134A1.

Target: Ustekinumab lambda fusion light chain (human)
Experiment: LCMS of Fabs cleaved from IgG; 2 HC + 2 LC co-expressed in HEK293

% HC1-LC2 product: 0%
Substance: Panitumumab heavy chain, CH1 K147F S183K (from UniProt P01857 1-101)
